Consider four molecules from patent US5985273A, “Biological control of insects” (priority 1994, dated 1999).

One experiment deals with Teleogryllus commodus. The experiment can be described thus: Mortality of black field cricket nymphs on treated cabbage leaf disks. In kind it is in vivo. The settings on record: after 7 days. Here is the method: (i) Stock solutions of inhibitors and control solutions were prepared as aqueous solutions or suspensions as outlined in Table 6.1.
(ii) Mortality was assessed by commencing the study with 1st instar nymphs.
(iii) Cabbage leaf disks (5×8 mm diameter disks/treatment) were smeared with 100 μl of inhibitor or control stock solutions and allowed to dry. Disks were placed singly in 40 mm petri dishes, together with a moist cotton wool pas as water supply and a piece of fluted plastic for shelter.
(iv) Ten nymphs were placed on each disc and the dishes incubated at 25° C.
(v) Mortality was assessed daily and any dead individuals removed.

Another experiment relates to Ctenocephalides felis. The experiment can be described thus: Development of cat flea eggs in dried blood diets. In kind it is in vivo. The settings on record: Day 16. Here is the method:
Blood was collected from the jugular vein of a five year old merino sheep that had not been treated with an ectoparasitic agent for 18 months. The blood was collected into a 100 ml plastic bottle containing 0.8 ml of heparin and was maintained at 4° C. Inhibitors were pre-weighed into sterile 5 ml plastic vials and 4.5 ml of blood added. The samples were mixed, placed at -70° C. for 24 hours, then freeze-dried. The freeze-dried samples were sieved through a stainless steel 63 micron sieve, and placed into sterile 5 ml plastic vials (0.15 g/per tube). Four flea eggs were placed into each vial, and a sheet of tissue paper fastened by an elastic band was fitted to the top of each vial. The vials were incubated at 25° C. and 70-80% R H for 6 days. Vermiculite was then added to each vial to provide a supporting medium for the fleas to pupate and the tubes incubated at 25° C. and 70-80% R H, for a further 10 days. Ten control vials and three vials of each treatment were tested.
At the conclusion of the incubation period the vials were placed at -20° C. for 24 hours to kill the fleas. The number of eggs hatched and the life-cycle state was recorded.

In experiment [1] the test system is Heliothis punctigens larvae. Description: Growth and survival of cotton budworm larvae fed an artificial diet. In kind it is in vivo. Conditions: 10 days; for % Alive: control 70.0. Here is the method: 1. The Haricot beans were cooked in a microwave for 40 minutes. 2. Agar was added to the hot water and stirred on a hot plate until almost boiling. 3. The haricot beans, agar mix, yeast and wheat germ was blended in an electric mixer for 3 minutes. 4. When the temperature has dropped to 60°C., the acids were added and mixed with the media. […] Inhibitor solutions or an equal volume of water were placed into sterilized glass tubes at designated concentrations. The artificial media was added to each tube (1.5 ml) using a sterile 10 ml syringe. First instar Heliothis punctigens larvae (1 larvae per tube) were added to the glass tubes and the tubes were capped. The tubes were incubated for 10 days at 25° C. The larvae were killed by placing the glass tubes at -70° C. for 24 hours, and then individually weighed. Percentage inhibition was calculated by comparison to control larvae.

In the next experiment the test system is Tribolium castaneum. The experiment can be described thus: Growth and survival of Tribolium castaneum in treated flour. In kind it is in vivo. The settings on record: Day 6; all dose levels. Here is the method: Insects were cultured in cleaned, ground and sieved wholemeal flour made from organic wheat. Inhibitors from bottles of pre-weighed material were dry-mixed with the flour and residual inhibitor rinsed from bottles with a small volume of water. Rinse water was added to the flour and the mixture re-ground. The impregnated flour was transferred to a 20 mL vial and mixed thoroughly by shaking and inverting. Adults of T. castaneum were allowed to oviposit on flour, eggs were sifted from the flour and transferred one by one with a single hair to microwell tubes containing a small amount of flour. Each level of treatment was performed in triplicated using 32 wells/replicate. Assays were performed in triplicated. Cultures were incubated at 30° C. and 55% R H. After 6 days each replicate of 32 wells was combined, the larvae counted and the numbers compared with numbers in the control (no inhibitor) treatment. Larvae were classified as "small" if appreciably smaller than reference larvae, or abnormal if unusual behaviour or formation were observed (eg. twisting or twisted larvae). Test inhibitors and dose rates were the same as those used in Example 4.

The test system of another experiment is Lucilia cuprina larvae. Description: Growth and survival of first instar sheep blowfly larvae on culture medium with inhibitor. In kind it is in vivo. Conditions: for Effect on larval growth, summary in words: Example 1, Table 1.2; for % Growth Inhibition / Average Larval Weight: Table 2.2; for Average Larval Weight: control 10.26.
Experiment [2] concerns European corn borer (ECB) neonatal larvae. Conditions: 20 mg/ml of diet; laboratory assay; cited from earlier work.
For experiment [3], the system named is Southern corn rootworm (SCR) neonatal larvae. Conditions: 20 mg/ml of diet; laboratory assay; cited from earlier work.
The subject of another experiment is O. surinamensis larvae. The experiment can be described thus: Weight reduction of Oryzaephylus surinamensis larvae in treated flour. In kind it is in vivo. Here is the method:
Insects were cultured in cleaned, ground and sieved wholemeal flour made from organic wheat. Inhibitors from bottles of pre-weighed material were dry-mixed with the flour and residual inhibitor rinsed from bottles with a small volume of water. Rinse water was added to the flour and the mixture re-ground. The impregnated flour was transferred to a 20 mL vial and mixed thoroughly by shaking and inverting.
Adults of T. castaneum were allowed to oviposit on flour, eggs were sifted from the flour and transferred one by one with a single hair to microwell tubes containing a small amount of flour. Each level of treatment was performed in triplicated using 32 wells/replicate. Assays were performed in triplicated. Cultures were incubated at 30° C. and 55% R H.
The bioassay for this insect was outlined for T. castaneum, except incubations were conducted at 32.5° C. and 70% R H. After 8 days the insects were sieved from the flour and weighed.

The subject of experiment [4] is Colorado potato beetle larvae. Conditions: fed on potato leaves; cited from earlier work.
A further experiment relates to L. cuprina eggs. The experiment can be described thus: Egg hatch of L. cuprina on liver in vitro. In kind it is in vivo, Lucilia cuprina. Conditions: 0.17 mM; 24 hours at 35° C.; control 71. Here is the method: L. cuprina eggs were placed on pieces of liver (0.9 g) which were then placed in individual wells of a 24-well tissue culture plate. Phosphate buffered saline (PBS, 0.1 ml) containing inhibitors at set concentrations were added to each well with 30 freshly laid and sterilised eggs of L. cuprina. The culture plate was then maintained in a sterile environment at 35° C. for 24 hours, after which time the percentage hatch was assessed.

The test system of experiment [5] is Bovicola ovis (Hartley strain). The experiment can be described thus: Survival of sheep lice on inhibitor treated wool. In kind it is in vivo. The settings on record: of 10 lice, 24 Hours at 35° C.

With `CCCCC[C@H](CC(=O)NO)C(=O)N[C@H](C(=O)N1CCC[C@H]1CO)C(C)C` [Actinonin], the “Mortality (class)” value in the experiment on Teleogryllus commodus (5 mM) was “None (none/low, 10-20% mortality)”. The “Percentage of Fleas Progressing Through to Pupation” value in the experiment on Ctenocephalides felis (1.40 mg in 4.5 ml of blood) was 0%; in the experiment with Ctenocephalides felis (2.80 mg in 4.5 ml of blood), 16.8%. Further, the figures for the “% Alive” value in experiment [1] (2.5 mM) and in experiment [1] (5.0 mM) were 33.3% and 0.00%, respectively. The inhibition at 2500 µM in experiment [1] (Heliothis, 240 h, 2.5 mM, read-out: % Growth Inhibition) turned out to be 97.5%; in the experiment with Lucilia cuprina larvae (Lucilia cuprina, first instar larvae, 2.5 mM), 83%. Besides, the inhibition at 5000 µM in experiment [1] (Heliothis, 240 h, 5.0 mM, read-out: % Growth Inhibition) came to 100%. Further, in the experiment on Tribolium castaneum, the Larval size classification result is on record as “small”. Also, in the experiment with Lucilia cuprina larvae, the “Effect on larval growth, summary in words” value is listed as “effective growth inhibitors”. Moreover, the inhibition at 10000 µM with Lucilia cuprina larvae (Lucilia cuprina, first instar larvae, 10 mM) is 95%.
For aprotinin, the figures for the Neonatal larvae killed in experiment [2] and in experiment [3] were 100% and 60%, respectively.
`c1cnc2c(c1)ccc1cccnc12` [1,10-phenanthroline]: the “Mortality (class)” value in the experiment with Teleogryllus commodus (5-20 mM) is given as “Medium (medium 21-40%)”. In addition, the Larval size classification result in the experiment on Tribolium castaneum was “normal”. Moreover, the inhibition at 5000 µM with O. surinamensis larvae (192 h, 5 mM, 8 days, relative to untreated larvae, read-out: Percentage Growth Inhibition) is 100%. Besides, in the experiment on O. surinamensis larvae (192 h, 10 mM, 8 days, relative to untreated larvae, read-out: Percentage Growth Inhibition), the inhibition at 10000 µM was 63%. The inhibition at 20000 µM in the experiment with O. surinamensis larvae (192 h, 20 mM, 8 days, relative to untreated larvae, read-out: Percentage Growth Inhibition) worked out at 95%. The “Growth inhibition, summary in words” value with O. surinamensis larvae (text summary of Table 9.1) is “highly effective”. The “Effect on larval growth, summary in words” value with Lucilia cuprina larvae is recorded as “effective growth inhibitors”. Also, in the experiment with Lucilia cuprina larvae (first instar larvae, tested at 1, 2.5, 5 mM), the “Larval survival” value was “All larvae died”.

B1: Soybean Trypsin Inhibitor (protein, UniProt P01070 25-205, looked up)
Trypsin inhibitor A: DFVLDNEGNPLENGGTYYILSDITAFGGIRAAPTGNERCPLTVVQSRNELDKGIGTIISSPYRIRFIAEGHPLSLKFDSFAVIMLCVGIPTEWSVVEDLPEGPAVKIGENKDAMDGWFRLERVSDDEFNNYKLVFCPQQAEDDKCGDIGISIDHDDGTRRLVVSKNKPLVVQFQKLDKESL
Turning to B1, the “Mortality (class)” value in the experiment with Teleogryllus commodus (0.17-0.68 mM) is reported as “None (none/low, 10-20% mortality)”. Moreover, the “Growth retardation” value in experiment [4] is given as “ineffective”. For the same molecule, the “Percentage of Fleas Progressing Through to Pupation” value with Ctenocephalides felis (5.0 mg in 4.5 ml of blood) and in the experiment on Ctenocephalides felis (10.0 mg in 4.5 ml of blood) was 0% in each case. For the same molecule, the “% Hatch” value in the experiment with L. cuprina eggs amounted to 17%. Also, the “Percentage Growth Inhibition” value in the experiment on O. surinamensis larvae (0.17 mM, 8 days, relative to untreated larvae) stood at 12%; in the experiment with O. surinamensis larvae (0.34 mM, 8 days, relative to untreated larvae), 30%; with O. surinamensis larvae (0.68 mM, 8 days, relative to untreated larvae), 46%. Besides, the “Number of Living Lice” value in [5] (Adult, 0.17 mM) amounted to 4; in experiment [5] (Adult, 0.34 mM), 0; in experiment [5] (Adult, 0.68 mM) it was 0; in experiment [5] (instar 1, 0.17 mM), 1; in [5] (instar 1, 0.34 mM), 1; in experiment [5] (instar 1, 0.68 mM), 0. Also, the “Number of Living Lice” value came out at 2 in [5] (instar 2, 0.17 mM); 0 in experiment [5] (instar 2, 0.34 mM); 0 in [5] (instar 2, 0.68 mM); 2 in [5] (instar 3, 0.17 mM); 4 in [5] (instar 3, 0.34 mM); 0 in experiment [5] (instar 3, 0.68 mM). Moreover, the “% Growth Inhibition” value is recorded as -22.5% in the experiment on Lucilia cuprina larvae (0.0425 mM); 28.5% in the experiment with Lucilia cuprina larvae (0.085 mM); 45.1% in the experiment with Lucilia cuprina larvae (0.170 mM); 69.3% in the experiment with Lucilia cuprina larvae (0.340 mM); 70.6% in the experiment with Lucilia cuprina larvae (0.680 mM). Besides, the “Average Larval Weight” value in the experiment on Lucilia cuprina larvae (0.0425 mM) is recorded as 12.57 10^-4 g; in the experiment on Lucilia cuprina larvae (0.085 mM) it was 7.34 10^-4 g; with Lucilia cuprina larvae (0.170 mM) it was 5.63 10^-4 g; in the experiment with Lucilia cuprina larvae (0.340 mM) it was 3.15 10^-4 g; with Lucilia cuprina larvae (0.680 mM), 3.02 10^-4 g. The “Growth Inhibition” value is reported as 76% with Lucilia cuprina larvae (first instar larvae, 0.17 mM) and 64% in the experiment on Lucilia cuprina larvae (first instar larvae, 0.40 mM).

As usually defined, the inhibition is the percentage by which the read-out fell short of the control.
